{
  "source": "paper PMC3229559",
  "molecular_target": "PKC-α (UniProt P20444)",
  "assay": "biotin-peptide pull-down from heart extract",
  "conditions": "reference: non-phosphorylated peptide; sites S179",
  "data": [
    {"substance": "syndecan-4 cytoplasmic part, 171-198 (from UniProt O35988) pS179 peptide", "values": [
      {"measurement": "binding against the reference", "value": "weaker"}
    ]}
  ]
}
